Results on 75 variants are retold here after the Human Domainome abundance scans (Beltran et al. 2025).

± gives the uncertainty stated by the source.

B1: Pituitary-specific positive transcription factor 1, residues 130 to 198; numbered along this chain, P28069 (parent)
chain: RELEKFANEFKVRRIKLGYTQTNVGEALAAVHGSEFSQTTICRFENLQLSFKNACKLKAILSKWLEEAE
B2: Membrane-associated guanylate kinase, WW and PDZ domain-containing protein 2, residues 601 to 682; numbered along this chain, Q86UL8 (parent)
chain: AELMTLTIVKGAQGFGFTIADSPTGQRVKQILDIQGCPGLCEGDLIVEINQQNVQNLSHTEVVDILKDCPIGSETSLIIHRG

Variants of B1 are the subject of the first data set. As to the kind of experiment: abundance fitness (aPCA) (normalised: wild type 0, dead -1); higher = more abundant; growth selection in yeast, the domain comes from the species named. The note with it: Homo sapiens.
Turning to RCLEKFANEFKVRRIKLGYTQTNVGEALAAVHGSEFSQTTICRFENLQLSFKNACKLKAILSKWLEEAE [E2C], the abundance fitness was -0.984 ± 0.32. On the same count and under the same terms, the same measure for RKLEKFANEFKVRRIKLGYTQTNVGEALAAVHGSEFSQTTICRFENLQLSFKNACKLKAILSKWLEEAE [E2K]: -0.471 ± 0.24; for RWLEKFANEFKVRRIKLGYTQTNVGEALAAVHGSEFSQTTICRFENLQLSFKNACKLKAILSKWLEEAE [E2W]: -0.541 ± 0.094; for RGLEKFANEFKVRRIKLGYTQTNVGEALAAVHGSEFSQTTICRFENLQLSFKNACKLKAILSKWLEEAE [E2G]: -0.373 ± 0.072. On the same count and under the same terms, to RTLEKFANEFKVRRIKLGYTQTNVGEALAAVHGSEFSQTTICRFENLQLSFKNACKLKAILSKWLEEAE [E2T] belongs -0.334 ± 0.12; to RDLEKFANEFKVRRIKLGYTQTNVGEALAAVHGSEFSQTTICRFENLQLSFKNACKLKAILSKWLEEAE [E2D], -0.109 ± 0.2; to RLLEKFANEFKVRRIKLGYTQTNVGEALAAVHGSEFSQTTICRFENLQLSFKNACKLKAILSKWLEEAE [E2L], -0.672 ± 0.14. On the same count and under the same terms, the same measure for RSLEKFANEFKVRRIKLGYTQTNVGEALAAVHGSEFSQTTICRFENLQLSFKNACKLKAILSKWLEEAE [E2S]: -0.443 ± 0.069; for RVLEKFANEFKVRRIKLGYTQTNVGEALAAVHGSEFSQTTICRFENLQLSFKNACKLKAILSKWLEEAE [E2V]: -0.895 ± 0.18. Regarding RRLEKFANEFKVRRIKLGYTQTNVGEALAAVHGSEFSQTTICRFENLQLSFKNACKLKAILSKWLEEAE [E2R], the abundance fitness is -0.624 ± 0.091. On the same count and under the same terms, to RPLEKFANEFKVRRIKLGYTQTNVGEALAAVHGSEFSQTTICRFENLQLSFKNACKLKAILSKWLEEAE [E2P] belongs -0.462 ± 0.19; to RQLEKFANEFKVRRIKLGYTQTNVGEALAAVHGSEFSQTTICRFENLQLSFKNACKLKAILSKWLEEAE [E2Q], -0.523 ± 0.16; to RALEKFANEFKVRRIKLGYTQTNVGEALAAVHGSEFSQTTICRFENLQLSFKNACKLKAILSKWLEEAE [E2A], -0.412 ± 0.087. On the same count and under the same terms, to RYLEKFANEFKVRRIKLGYTQTNVGEALAAVHGSEFSQTTICRFENLQLSFKNACKLKAILSKWLEEAE [E2Y] belongs -0.651 ± 0.27; to RILEKFANEFKVRRIKLGYTQTNVGEALAAVHGSEFSQTTICRFENLQLSFKNACKLKAILSKWLEEAE [E2I], -0.676 ± 0.15; to RHLEKFANEFKVRRIKLGYTQTNVGEALAAVHGSEFSQTTICRFENLQLSFKNACKLKAILSKWLEEAE [E2H], -0.968 ± 0.39.

RNLEKFANEFKVRRIKLGYTQTNVGEALAAVHGSEFSQTTICRFENLQLSFKNACKLKAILSKWLEEAE [E2N]: the abundance fitness is -0.518 ± 0.19. Still for that read-out and setting: to RECEKFANEFKVRRIKLGYTQTNVGEALAAVHGSEFSQTTICRFENLQLSFKNACKLKAILSKWLEEAE [L3C] belongs -0.953 ± 0.44; to REDEKFANEFKVRRIKLGYTQTNVGEALAAVHGSEFSQTTICRFENLQLSFKNACKLKAILSKWLEEAE [L3D], -0.794 ± 0.22; to DELEKFANEFKVRRIKLGYTQTNVGEALAAVHGSEFSQTTICRFENLQLSFKNACKLKAILSKWLEEAE [R1D], -0.187 ± 0.099. Still for that read-out and setting: the same measure for EELEKFANEFKVRRIKLGYTQTNVGEALAAVHGSEFSQTTICRFENLQLSFKNACKLKAILSKWLEEAE [R1E]: -0.348 ± 0.48; for MELEKFANEFKVRRIKLGYTQTNVGEALAAVHGSEFSQTTICRFENLQLSFKNACKLKAILSKWLEEAE [R1M]: -0.712 ± 0.26; for VELEKFANEFKVRRIKLGYTQTNVGEALAAVHGSEFSQTTICRFENLQLSFKNACKLKAILSKWLEEAE [R1V]: -0.441 ± 0.14.

In the case of LELEKFANEFKVRRIKLGYTQTNVGEALAAVHGSEFSQTTICRFENLQLSFKNACKLKAILSKWLEEAE [R1L], the abundance fitness was -0.306 ± 0.37. Consider FELEKFANEFKVRRIKLGYTQTNVGEALAAVHGSEFSQTTICRFENLQLSFKNACKLKAILSKWLEEAE [R1F], for which the abundance fitness was -0.128 ± 0.23.

IELEKFANEFKVRRIKLGYTQTNVGEALAAVHGSEFSQTTICRFENLQLSFKNACKLKAILSKWLEEAE [R1I]: the abundance fitness is -0.508 ± 0.15.

As for KELEKFANEFKVRRIKLGYTQTNVGEALAAVHGSEFSQTTICRFENLQLSFKNACKLKAILSKWLEEAE [R1K], the abundance fitness stood at 0.376 ± 0.14. Still for that read-out and setting: to TELEKFANEFKVRRIKLGYTQTNVGEALAAVHGSEFSQTTICRFENLQLSFKNACKLKAILSKWLEEAE [R1T] belongs -0.371 ± 0.19. Same read-out and setting: the same measure for NELEKFANEFKVRRIKLGYTQTNVGEALAAVHGSEFSQTTICRFENLQLSFKNACKLKAILSKWLEEAE [R1N]: -0.37 ± 0.17.

The next data set covers variants of B2. The description is as above. The note with it: Homo sapiens.
With V62Q, the abundance fitness is -0.336 ± 0.13.

Regarding V62G, the abundance fitness is -1.07 ± 0.17.

Take V62D: the abundance fitness was -0.985 ± 0.35. On the same count and under the same terms, to T24P belongs -0.017 ± 0.041.

In the case of H59Y, the abundance fitness was -0.109 ± 0.11. The same measure, in the same setting: to Q13Y belongs -0.096 ± 0.057; to Q13V, -0.067 ± 0.036. On the same count and under the same terms, the same measure for T60E: -0.051 ± 0.11.

Take G25Y: the abundance fitness is -0.177 ± 0.1.

As to I19A, the abundance fitness was -0.542 ± 0.19. Same read-out and setting: to N56R belongs -0.036 ± 0.052; to N56T, -0.03 ± 0.11; to K67Q, -0.145 ± 0.13. On the same count and under the same terms, to V9K belongs -0.128 ± 0.049; to T75A, 0.101 ± 0.079.

As to T75R, the abundance fitness was -0.113 ± 0.075. Still for that read-out and setting: the same measure for T75K: -0.133 ± 0.11; for G72C: 0.046 ± 0.089. The same measure, in the same setting: to I71P belongs -0.052 ± 0.11.

Take R27L: the abundance fitness was -0.007 ± 0.12.

For G16F, the abundance fitness was -0.101 ± 0.063. On the same count and under the same terms, the same measure for G16T: -0.048 ± 0.037; for L66V: -0.235 ± 0.13; for L66S: -0.63 ± 0.2. Same read-out and setting: the same measure for I65H: -0.242 ± 0.093; for I49R: -0.875 ± 0.17; for N50F: -0.71 ± 0.48. Regarding E42G, the abundance fitness was -0.114 ± 0.052.

With S76H, the abundance fitness is -0.668 ± 0.29. Same read-out and setting: the same measure for S76E: -0.044 ± 0.14; for S73F: 0.029 ± 0.19; for G11Q: -0.119 ± 0.059. As for G82C, the abundance fitness was -0.117 ± 0.16. Still for that read-out and setting: the same measure for I31H: -0.316 ± 0.31.

For C69D, the abundance fitness is -0.27 ± 0.13. On the same count and under the same terms, the same measure for C69N: -0.195 ± 0.16; for D21G: -0.082 ± 0.081. The same measure, in the same setting: the same measure for K29H: 0.181 ± 0.33; for C37R: -0.163 ± 0.08. On the same count and under the same terms, the same measure for I79A: -0.214 ± 0.14; for I79S: -0.314 ± 0.11; for I34L: 0.007 ± 0.064. For I34A, the abundance fitness is -0.026 ± 0.053.

As for D44L, the abundance fitness was -1.27 ± 0.3.

Regarding N53K, the abundance fitness was -0.021 ± 0.042. Consider L57D, for which the abundance fitness is -0.109 ± 0.19.
